Residue numbers refer to the chain shown, from its start. Some results are limits rather than exact numbers.

From patent US20250289905A1 (MIRIMGENE, published 2025) come the findings set out here.

For experiment [1], the target named is T1, mouse-derived WARS1 recombinant protein (mouse, UniProt P32921 1-481, limits assumed).
T1 construct: Recombinant, His-tagged (detected with anti-His tag antibody); construct not described; In the western blot also secreted WARS1 from J774A.1 supernatant and mouse serum; also called mouse WARS1
T1 sequence (looked up): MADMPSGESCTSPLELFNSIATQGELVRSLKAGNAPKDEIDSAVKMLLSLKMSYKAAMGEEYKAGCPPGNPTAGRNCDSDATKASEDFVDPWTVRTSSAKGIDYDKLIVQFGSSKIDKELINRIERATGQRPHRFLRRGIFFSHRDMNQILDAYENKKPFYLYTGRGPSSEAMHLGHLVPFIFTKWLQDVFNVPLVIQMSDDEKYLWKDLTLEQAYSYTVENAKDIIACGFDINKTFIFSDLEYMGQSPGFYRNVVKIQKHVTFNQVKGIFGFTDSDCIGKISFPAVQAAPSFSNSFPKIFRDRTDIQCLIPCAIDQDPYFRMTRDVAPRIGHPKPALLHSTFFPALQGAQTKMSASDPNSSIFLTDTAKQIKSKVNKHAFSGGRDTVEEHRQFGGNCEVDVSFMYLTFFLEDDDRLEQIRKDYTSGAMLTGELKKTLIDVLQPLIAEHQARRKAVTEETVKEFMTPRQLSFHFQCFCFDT
The experiment is described as follows: direct ELISA. The procedure: (§1) Specifically, for direct ELISA, a 96-well plate (Maxisorp, Thermo Fisher) was coated with WARS1 having a 1 μg/ml concentration of a recombinant protein derived from human, marmoset (NHP), mouse, rat, and pig, and then blocked with PBS containing 1% BSA at room temperature for 1 hour. The GKB101 antibody or a variant antibody thereof was diluted in a concentration-dependent manner, added to each coated well, reacted at room temperature for 1 hour, and then washed four times with PBST (PBS+Tween20). Each well was treated and reacted for 1 hour with an antibody (anti-Human IgG, cell signaling) to which HRP is attached, and then washed with PBST. Lastly, after developing with a TMB substrate (BD), its absorbance was measured at 490 nm (NIVO) (FIGS. 4a to 5).
On the technique in general: In an ELISA, binding on a coated surface is turned into a signal by an enzyme label.

In experiment [2] the target is T2, human WARS1 recombinant protein (human, UniProt P23381 2-471, limits assumed).
T2 construct: Recombinant protein, detected with an anti-His tag antibody; In the western blot also secreted WARS1 from THP-1 supernatant and human serum; also called human-derived WARS1 recombinant protein
T2 sequence: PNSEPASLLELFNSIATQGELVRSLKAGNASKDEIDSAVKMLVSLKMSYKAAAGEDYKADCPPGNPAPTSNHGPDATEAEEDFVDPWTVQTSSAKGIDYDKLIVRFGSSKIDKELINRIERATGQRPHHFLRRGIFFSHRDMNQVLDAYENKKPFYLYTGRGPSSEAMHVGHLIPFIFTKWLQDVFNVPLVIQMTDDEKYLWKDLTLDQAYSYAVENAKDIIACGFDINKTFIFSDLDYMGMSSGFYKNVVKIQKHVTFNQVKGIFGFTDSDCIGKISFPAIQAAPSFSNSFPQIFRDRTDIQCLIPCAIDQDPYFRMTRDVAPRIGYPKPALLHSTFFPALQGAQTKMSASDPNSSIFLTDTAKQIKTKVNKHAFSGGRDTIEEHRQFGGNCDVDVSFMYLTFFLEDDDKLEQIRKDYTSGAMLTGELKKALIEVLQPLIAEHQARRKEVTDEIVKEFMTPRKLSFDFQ
The experiment is described as follows: direct ELISA. How it is done:
as §1

Experiment [3] concerns the target T3, rat-derived WARS1 recombinant protein (rat, UniProt Q6P7B0 1-481, limits assumed).
T3 construct: Recombinant, His-tagged (detected with anti-His tag antibody); construct not described; also called rat WARS1
T3 sequence (looked up): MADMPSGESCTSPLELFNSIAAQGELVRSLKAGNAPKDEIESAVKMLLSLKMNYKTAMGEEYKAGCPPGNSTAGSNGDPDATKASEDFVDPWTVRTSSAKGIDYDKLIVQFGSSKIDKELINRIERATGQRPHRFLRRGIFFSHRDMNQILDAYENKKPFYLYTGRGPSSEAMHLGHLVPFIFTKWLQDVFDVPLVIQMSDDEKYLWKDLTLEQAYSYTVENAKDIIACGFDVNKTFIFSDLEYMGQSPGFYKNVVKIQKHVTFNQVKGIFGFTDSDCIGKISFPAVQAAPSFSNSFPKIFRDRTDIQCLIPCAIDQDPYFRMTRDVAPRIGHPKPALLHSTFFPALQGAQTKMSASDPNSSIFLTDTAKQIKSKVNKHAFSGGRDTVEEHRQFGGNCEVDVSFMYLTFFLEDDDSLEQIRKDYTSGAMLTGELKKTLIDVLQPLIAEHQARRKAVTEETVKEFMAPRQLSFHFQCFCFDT
The experiment in a line: direct ELISA. The procedure:
as §1

The target in experiment [4] is marmoset (NHP)-derived WARS1 recombinant protein (marmoset (NHP)) (UniProt U3CR73). The experiment in a line: direct ELISA.
Experiment [5] deals with T2, human WARS1 recombinant protein. The experiment in a line: cell-based or functional assay.

B1: SHL/ILN (antibody, V domains shown)
VH: EVQLLESGGGLVQPGGSLRLSCAASGFTFSSYDMSWVRQAPGKGLEWVSAISSGGSSIYYADSVKGRFTISRDNSKNTLYLQMNSLRAEDTAVYYCARDVAWDMLGDFDYWGQGTLVTVSS
VL: QSVLTQPPSASGTPGQRVTISCTGSSSNIGSNYVYWYQQLPGTAPKLLIYANILRPSGVPDRFSGSKSGTSASLAISGLRSEDEADYYCGAWDDSNSAYVFGGGTKLTVLT
notes: L-CDR2 and L-CDR3 variant of GKB101; also called SHL/ILN antibody
For B1, the Kd (as a rule, the concentration at which binding is half-saturated) in experiment [1] was ~1 pM; in experiment [2] it was ~1 pM; in experiment [3], ~1 pM; in experiment [4] it was 1 pM.

B2: SHL/LLN (antibody, V domains shown)
VH: B1 VH
VL: B1 VL with I53L
notes: L-CDR2 and L-CDR3 variant of GKB101; also called SHL/LLN antibody
For the molecule B2, the dissociation constant (Kd) is ~1 pM in experiment [1], ~1 pM in experiment [2], ~1 pM in experiment [3] and 1 pM in experiment [4]. The “secretion of TNF-α in mouse macrophage J774A.1 cells” value in experiment [5] is ≥ 40%.

B3: SHL/QLN (antibody, V domains shown)
VH: B1 VH
VL: B1 VL with I53Q
notes: L-CDR2 and L-CDR3 variant of GKB101; also called SHL/QLN antibody
B3: the dissociation constant Kd in experiment [1] is ~1 pM; in experiment [2] it was ~1 pM; in experiment [3], ~1 pM; in experiment [4], 1 pM. Besides, the “secretion of TNF-α in mouse macrophage J774A.1 cells” value in experiment [5] is ≥ 40%.
